Laboratory results taken from patent publication US20150315275A1.

Assays:
[1] = molecular target: human B7-H4 expressed on cells (human) (UniProt Q7Z7D3); test: saturation binding, flow cytometry on 624mel/B7-H4 cells; negative control used as background
[2] = molecular target: human B7-H4 expressed on cells (human) (UniProt Q7Z7D3); test: flow cytometry on 624mel/B7-H4 cells, negative control antibody; signal subtracted as background from all other points

human B7-H4 expressed on cells (human), sequence (Q7Z7D3 other isoform, or with tags, fused parts or gaps limits assumed): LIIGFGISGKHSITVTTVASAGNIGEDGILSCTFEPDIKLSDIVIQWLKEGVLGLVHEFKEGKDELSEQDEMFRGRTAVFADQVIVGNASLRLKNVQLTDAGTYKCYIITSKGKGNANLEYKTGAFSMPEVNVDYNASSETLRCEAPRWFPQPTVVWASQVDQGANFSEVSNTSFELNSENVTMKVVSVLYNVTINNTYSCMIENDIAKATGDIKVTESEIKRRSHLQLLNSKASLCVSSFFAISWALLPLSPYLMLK

An average signal (MFI) [1] of 245 MFI and an MFI (average background signal) [2] of 245 MFI were found for “negative control antibody (anti-PD-1 antibody)” in this work.
